Laboratory results reported in PMC4259358, “Functional Characterization of Nuclear Localization and Export Signals in Hepatitis C Virus Proteins and Their Role in the Membranous Web” (PLoS ONE, 2014).

Key:
Conditions in all cases: both partners purified
[1] = target: T1, recombinant IPOA5 (importin α5/kap α1) (UniProt P52294 1-538); assay: ELISA; plates coated with synthetic peptide (10 µg/ml, carbonate buffer pH 9.6); increasing concentrations of recombinant NTF, 2 h, room temperature; anti-HIS detection; apparent Kd
[2] = target: T2, recombinant IPO5 (importin β3/kap β3) (UniProt O00410-1 1-1097); assay: as above
T2 sequence (looked up): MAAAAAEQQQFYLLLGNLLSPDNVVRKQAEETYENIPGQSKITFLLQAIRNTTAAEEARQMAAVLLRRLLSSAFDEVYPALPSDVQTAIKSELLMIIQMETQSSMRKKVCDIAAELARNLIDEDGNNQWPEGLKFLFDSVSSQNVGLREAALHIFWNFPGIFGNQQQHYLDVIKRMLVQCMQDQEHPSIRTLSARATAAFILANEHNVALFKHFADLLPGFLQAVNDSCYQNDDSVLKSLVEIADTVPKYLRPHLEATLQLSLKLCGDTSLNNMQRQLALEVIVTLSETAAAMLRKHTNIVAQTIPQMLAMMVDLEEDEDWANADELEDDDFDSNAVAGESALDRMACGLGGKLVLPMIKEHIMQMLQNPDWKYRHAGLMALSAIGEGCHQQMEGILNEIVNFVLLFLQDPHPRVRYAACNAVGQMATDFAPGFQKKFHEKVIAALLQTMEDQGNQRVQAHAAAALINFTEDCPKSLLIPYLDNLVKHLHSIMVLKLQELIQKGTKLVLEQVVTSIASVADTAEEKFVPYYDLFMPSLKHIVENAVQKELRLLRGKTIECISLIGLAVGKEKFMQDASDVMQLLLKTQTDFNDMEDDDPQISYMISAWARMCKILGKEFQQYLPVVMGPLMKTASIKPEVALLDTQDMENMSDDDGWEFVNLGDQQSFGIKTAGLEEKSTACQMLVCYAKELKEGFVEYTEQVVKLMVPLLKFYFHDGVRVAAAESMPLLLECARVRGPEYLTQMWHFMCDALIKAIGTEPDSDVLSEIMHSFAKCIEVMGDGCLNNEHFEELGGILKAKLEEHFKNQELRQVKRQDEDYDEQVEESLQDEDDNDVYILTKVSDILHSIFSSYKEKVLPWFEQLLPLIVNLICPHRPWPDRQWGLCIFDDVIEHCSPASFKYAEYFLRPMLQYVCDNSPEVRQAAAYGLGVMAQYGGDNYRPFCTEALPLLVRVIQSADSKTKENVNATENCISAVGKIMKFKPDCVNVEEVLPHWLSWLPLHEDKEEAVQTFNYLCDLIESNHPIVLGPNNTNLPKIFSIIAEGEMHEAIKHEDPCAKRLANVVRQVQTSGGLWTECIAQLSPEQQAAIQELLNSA

[3] = target: T3, recombinant XPO1 (exportin 1/CRM1) (UniProt O14980 1-1071); assay: as above
[4] = target: T1, recombinant IPOA5 (importin α5/kap α1); assay: as above; remark: listed apart in the source
[5] = target: T1, recombinant IPOA5 (importin α5/kap α1); assay: ELISA; plates coated with recombinant HCV protein (10 µg/ml, carbonate buffer pH 9.6); recombinant NTF added, 2 h, room temperature; anti-NTF antibodies; apparent Kd
[6] = target: T2, recombinant IPO5 (importin β3/kap β3); assay: as above
[7] = target: T3, recombinant XPO1 (exportin 1/CRM1); assay: as above

T3 sequence (O14980 whole entry): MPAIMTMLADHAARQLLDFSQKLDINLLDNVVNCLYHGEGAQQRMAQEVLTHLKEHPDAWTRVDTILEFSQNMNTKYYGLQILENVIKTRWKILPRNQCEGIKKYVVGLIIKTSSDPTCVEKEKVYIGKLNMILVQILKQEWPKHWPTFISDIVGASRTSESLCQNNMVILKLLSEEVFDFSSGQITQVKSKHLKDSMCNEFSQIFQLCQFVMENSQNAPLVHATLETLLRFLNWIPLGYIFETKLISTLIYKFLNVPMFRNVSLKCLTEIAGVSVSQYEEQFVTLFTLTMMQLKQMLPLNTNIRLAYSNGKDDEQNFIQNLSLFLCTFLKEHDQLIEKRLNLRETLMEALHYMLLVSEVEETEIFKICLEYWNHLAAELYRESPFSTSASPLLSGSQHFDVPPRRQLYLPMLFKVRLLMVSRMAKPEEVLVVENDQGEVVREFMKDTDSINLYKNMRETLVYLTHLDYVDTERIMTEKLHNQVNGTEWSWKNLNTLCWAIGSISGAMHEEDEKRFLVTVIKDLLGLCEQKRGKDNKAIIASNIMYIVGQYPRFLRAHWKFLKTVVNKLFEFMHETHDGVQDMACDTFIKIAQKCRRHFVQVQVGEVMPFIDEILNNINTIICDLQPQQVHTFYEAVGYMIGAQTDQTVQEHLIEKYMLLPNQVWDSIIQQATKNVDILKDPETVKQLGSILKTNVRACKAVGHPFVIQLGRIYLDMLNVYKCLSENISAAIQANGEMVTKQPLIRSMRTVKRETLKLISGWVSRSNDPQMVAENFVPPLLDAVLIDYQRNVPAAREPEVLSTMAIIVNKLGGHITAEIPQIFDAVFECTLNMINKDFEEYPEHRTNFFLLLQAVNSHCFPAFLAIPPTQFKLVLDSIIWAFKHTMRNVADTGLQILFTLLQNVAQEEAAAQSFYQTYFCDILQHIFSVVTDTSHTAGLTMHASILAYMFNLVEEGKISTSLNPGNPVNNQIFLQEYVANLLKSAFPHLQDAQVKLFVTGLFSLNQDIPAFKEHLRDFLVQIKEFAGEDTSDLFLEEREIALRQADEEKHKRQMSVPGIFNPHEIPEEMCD
T1 sequence (P52294 whole entry): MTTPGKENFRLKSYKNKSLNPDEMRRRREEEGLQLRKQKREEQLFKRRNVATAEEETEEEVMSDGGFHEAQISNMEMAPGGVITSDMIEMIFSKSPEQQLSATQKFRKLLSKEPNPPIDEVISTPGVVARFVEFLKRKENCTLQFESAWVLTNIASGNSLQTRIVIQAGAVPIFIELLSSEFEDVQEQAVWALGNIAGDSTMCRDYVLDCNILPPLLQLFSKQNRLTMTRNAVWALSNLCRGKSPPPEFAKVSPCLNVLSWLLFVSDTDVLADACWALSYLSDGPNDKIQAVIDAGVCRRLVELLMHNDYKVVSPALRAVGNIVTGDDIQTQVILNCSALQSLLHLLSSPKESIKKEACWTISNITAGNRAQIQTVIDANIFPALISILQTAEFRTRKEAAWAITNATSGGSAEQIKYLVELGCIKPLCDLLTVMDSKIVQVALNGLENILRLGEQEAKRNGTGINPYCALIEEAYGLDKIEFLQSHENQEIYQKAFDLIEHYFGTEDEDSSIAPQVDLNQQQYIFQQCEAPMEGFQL

B1: Core NLS 2 synthetic peptide (fused to penetratin) (peptide)
peptide: PRRGPRLGVRRQIKIWFQNRRMKWKK
notes: source: synthetic peptide (GL Biochem, HPLC >85%)
[1]
  Kd: 24.9 ± 1.71 nM
[2]
  Kd: 78.8 ± 6.42 nM

B2: Core NLS 1 synthetic peptide (fused to penetratin) (peptide)
peptide: PKPQRKTKRNTNRRPRQIKIWFQNRRMKWKK
notes: as for B1
[1]
  Kd: 161 ± 31.8 nM
[2]
  Kd: 34.8 ± 4.54 nM

B3: HIV-1 Rev NES synthetic peptide (fused to penetratin) (peptide)
peptide: LQLPPLERLTLRQIKIWFQNRRMKWKK
notes: as for B1
[3]
  Kd: 114 ± 71.5 nM

B4: NS2 NLS synthetic peptide (fused to penetratin) (peptide)
peptide: PIIFSPMEKKVIVWGRQIKIWFQNRRMKWKK
notes: as for B1
[4]
  Kd: ~34 nM
[1]
  Kd: 79.2 ± 3.89 nM

B5: Core NES 1 synthetic peptide (fused to penetratin) (peptide)
peptide: KVIDTLTCGFADLMGRQIKIWFQNRRMKWKK
notes: as for B1
[3]
  Kd: 66.7 ± 11.3 nM

B6: Core NLS 3 synthetic peptide (fused to penetratin) (peptide)
peptide: PRGRRQPIPKDRRSTGKAWGKPRQIKIWFQNRRMKWKK
notes: as for B1
[1]
  Kd: 17.5 ± 0.81 nM
[2]
  Kd: 40.4 ± 7.06 nM

B7: NS2 NES synthetic peptide (fused to penetratin) (peptide)
peptide: LILLTLSPHYKLFLARLIWWLQYFITRQIKIWFQNRRMKWKK
notes: as for B1
[3]
  Kd: 79.8 ± 25.6 nM

B8: Core NES 2 synthetic peptide (fused to penetratin) (peptide)
peptide: LPGCSFSIFLLALLSCITVPVSARQIKIWFQNRRMKWKK
notes: as for B1
[3]
  Kd: 95.2 ± 26.6 nM

B9: recombinant full-length HCV core protein (natural protein)
chain: STNPKPQRKTKRNTNRRPEDVKFPGGGQIVGGVYLLPRRGPRLGVRTTRKTSERSQPRGRRQPIPKDRRSTGKAWGKPGRPWPLYGNEGLGWAGWLLSPRGSRPSWGPTDPRHRSRNVGKVIDTLTCGFADLMGYIPVVGAPLSGAARAVAHGVRVLEDGVNYATGNLPGFPFSIFLLALLSCITVPVSA
[5]
  Kd: 36.8 ± 4.83 nM
[6]
  Kd: 56 ± 2.78 nM
[7]
  Kd: 23.1 ± 4.07 nM
